Five molecules from paper doi:10.1101/862326 can be followed below.

What all share (assay): ITC
The target of data set [1] is T1, dADAR-dsRBD1 (UniProt Q9NII1 48-140).
T1 sequence: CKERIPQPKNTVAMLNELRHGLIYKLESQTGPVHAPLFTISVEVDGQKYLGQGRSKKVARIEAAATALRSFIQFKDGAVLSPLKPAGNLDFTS

Data set [2] deals with T2, TRBP2-dsRBD1 (UniProt Q15633 1-105).
T2 sequence: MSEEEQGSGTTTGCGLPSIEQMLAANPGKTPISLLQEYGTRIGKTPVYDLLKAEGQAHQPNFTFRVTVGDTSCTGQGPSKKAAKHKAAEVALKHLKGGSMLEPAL

In data set [3] the target is T2, TRBP2-dsRBD1. This is another data set of the same source.
The target in data set [4] is T1, dADAR-dsRBD1. This is another data set of the same source.
The target in data set [5] is T2, TRBP2-dsRBD1. The source holds these as a separate data set.
Data set [6] has as its target T1, dADAR-dsRBD1. This is another data set of the same source.
The target of data set [7] is T1, dADAR-dsRBD1. The source holds these as a separate data set.
Data set [8] concerns the target T2, TRBP2-dsRBD1. The source holds these as a separate data set.
Data set [9] has as its target T2, TRBP2-dsRBD1. This is another data set of the same source.
Data set [10] has as its target T1, dADAR-dsRBD1. This is another data set of the same source.

Read-outs that look alike come from different tables or passages of the source.

B1: D10RNA (dsRNA)
RNA 1: UUAUAAAUGC
RNA 2: GCAUUUAUGA
By Kd is commonly meant the constant that tells how readily two partners part at equilibrium. A lower Kd goes with higher affinity. As for B1, the Kd with dADAR-dsRBD1 [1] was 210 ± 100 nM; in the data set with TRBP2-dsRBD1 [2] it was 2210 ± 510 nM.

B2: miR-16-1-B (dsRNA)
RNA 1: UAGCAGCACGUAAAUAUUGGCG
RNA 2: CCAGUAUUUACUGUGCUGCUGAA
Turning to B2, the Kd in the data set with TRBP2-dsRBD1 [3] was found to be 690 ± 130 nM; in the data set with dADAR-dsRBD1 [4], 270 ± 70 nM.

B3: miR-16-1-M (dsRNA)
RNA 1: UAGCAGCACGUAAAUAUUGGCG
RNA 2: CCAGUAUUAACGUGCUGCUGAA
For B3, the Kd is 2120 ± 220 nM with TRBP2-dsRBD1 [5] and 780 ± 240 nM in the data set with dADAR-dsRBD1 [6].

B4: miR-16-1-D (dsRNA)
RNA 1: UAGCAGCACGUAAAUAUUGGCG
RNA 2: CCAGUAUUUACGUGCUGCUGAA
Regarding B4, the Kd in the data set with dADAR-dsRBD1 [7] was determined as 430 ± 100 nM; with TRBP2-dsRBD1 [8], 500 ± 40 nM.

B5: miR-16-1 (dsRNA)
RNA 1: UAGCAGCACGUAAAUAUUGGCG
RNA 2: CCAGUAUUAACUGUGCUGCUGAA
B5: the Kd is 890 ± 210 nM with TRBP2-dsRBD1 [9] and 270 ± 50 nM in the data set with dADAR-dsRBD1 [10].
